Assay results taken from the nanobody polyreactivity screen of Harvey et al. (2022).

test: yeast display, Sf9 membrane polyspecificity reagent, FACS + sequencing; frameworks hold sequencing errors
How it was run: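 Nanobodies from a synthetic yeast display library (Saccharomyces cerevisiae BJ5465), induced 36–48 hours with galactose, were stained 1 hour at 4 °C with 10% biotinylated, detergent-solubilized Sf9 membrane reagent, enriched on streptavidin microbeads, then FACS-sorted. Anti-HA (expression) and streptavidin (reagent binding) fluorescence set low and high (top ~1%) gates. Polyreactivity labels come from the gate of origin. Genes were colony-PCR amplified, MiSeq 2 × 250 sequenced and filtered by CDR length.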

Row | Sequence | polyreactivity (PSR sort gate)
1 | QVQLVESGGGLVQAGGSLRLSCAASGRIFVLYAMGWYRQAPGKERELVAAINWSGGSTFYADSVKGRFTISRDNAKNTVYLQMNSLKPEDTAVYYCAADPYFWSALRIGQNDYWGQGTQVTVSS | high polyreactivity
2 | QVQLVESGGGLVQAGGSLRLSCAASGFTIRRYAMGWYRQAPGKERELVAAITTGGSTYYADSVKGRFTISRDNAKNTVYLQMNSLKPEDTAVYYCATDTYPYPLYYSPGAYGYWGQGTQVTVSS | high polyreactivity
3 | QVQLVESGGGLVQAGGSLRLSCAASGSIFVFNAMGWYRQAPGKERELVAAISSSGGSTYYADSVKGRFTISRDNAKNTVYLQMNSLKPEDTAVYYCNKRLYYQRWPAAAREYWGQGTQVTVSS | high polyreactivity
4 | QVQLVESGGGLVQAGGSLRLSCAASGGTFRGYAMGWYRQATGKERELVAAITYSGGRTYYADSVKGRFTISRDNAKNTVYLQMNSLKPEDTAVYYCNAQSSGRLSYRYDYWGQGTQVTVSS | high polyreactivity
5 | QVQLVESGGGLVQAGGSLRLSCAASGSTFYNYAMGWYRQAPGKERELVAAIRNGGGTNYADSVKGRFTISRDNAKNTVYLQMNSLKPEDTAVYYFNKAYGVSGPGVDYWGQGTQVTVSS | low polyreactivity
6 | QVQLVESGGGLVQAGGSLRLSCAASGRTFGQNAMGWYRQAPGKERELVASIRSGGITDYADSVKGRFTISRDNAKNTVYLQMNSLKPDDTAVYYCNAEGVWWSTRYDSWGQGTQVTVSS | low polyreactivity
7 | QVQLVESGGGLHQAGGSLRLSCAASGSTYASNARGWYRQAPGKETELVAAITSRDASTYYADSVKGRFTISRDYAKNTVYLQMNRLKPEDTAVYYCATDGYSPAAFDYWGQGTQVTVSS | low polyreactivity
8 | QVQLVESGGGLVQAGGSLRLSCAASGFTFETYAMGWNRQAPGKERELVASISRSGGRTYYADSVKGRFTISRDNAKNTVYLQMNSLKPDDTAVYYCAAGYYVRYGRRPTGYGGYDYWGQGTQVTVSS | high polyreactivity
9 | QVQLVESGGGLVQAGGSLRLSCAASGSILVHYSMGWYRQAPGKERELVAAISRGGSTNYADSVKGRFTISRDNAKNTVYLQMNSLKPEDTAVYYCAARRPWGEYYWGQGTQVTVSS | low polyreactivity
10 | QVQLVESGGGLVQAGGSLRLSCAASGRTIYYYAMGWYRQAPGKEREFVAAISWHGGSTYYADSVKGRFTISRDNAKNTVYLQMNSLKPEDTAVYYCAAERYDRVGFDYWGQGTQVTVSS | low polyreactivity
11 | QVQLVESGGGLVQAGGSLRLSCAASGRTFYNAMGWYRQAPGKERELVAAITTGGGTKYADSVKGRFTISRDNAKNTVYLQMNSLKPEDTAVYYCNAYRQYRYDYWGQGTQVTVSS | low polyreactivity
12 | QVQLVESLGGLVQAGGSLRLSFAASGFIFAKYAIGWYRKAAGKERELVAAITSGGSTNYADSVKGRFTISRDNAKNTVFLQMNSLKPEDTAVYYCNRGFDWCYRYRHYDYCGQGTQVTVSS | low polyreactivity
13 | QVQLVESGGGLVQAGGSLRLSCAASGFISPSYAMGWYRPAPGKERELVAAIRSSDGSTYYADSVKGRFTISRDNAKNTVYLQMNSLKPEDTAVYYCAAGGSYYRDDYWGQGTQVTVSS | low polyreactivity
14 | QVQLVESGGGLVQAGGSLRLSFAASGSIFYAYAMGWYRQAPGKERELVAGISGGGSTNYADSVKGRFTISRDNAKNTVYLQMNSLKPEDTAVYYCAADGWLSATYDGLPDSDSWGQGTQVTVSS | high polyreactivity
15 | QVQLVESGGGLVQAGGSLRLSCAASGSTFAGNAMGWYRQAPGKERELVAAITWSGGNTNYADSVKGRFTISRDNAKNTVYLQMNSLKPEDTAVYYCASDFSGSLAYDYWGQGTQVTVSS | low polyreactivity
16 | QVQLVESGGGLVQAGGSLRLSCAASGSIFRRYTMGWYRPAPGKERELVAAISRVGNTNYADSVKGRFTISRDNAKNTVYLPMNSLKPEDTAVYYCAARAIGYRYTPGLNYWGQGTQLTVSS | high polyreactivity
17 | QVQLVESGGGLVQAGGSLRLSCAASGSNFTNAMGWYRQAPGKERELVASIDANAGDTHYADSVKGRFTISRDNAKNTVYLQLNSLKPEDTAVYYCNADVTERLWTGEDDYWGQGTQVTVSS | low polyreactivity
18 | QVQLVESGGALVQAGATLRISSAASGSIFYRNSMRWYRQAPGKEREKVAANSSDGSRNYADSVKGRFSISRDNAKNTVYLQMNSLKPEDNAVYYCAVDYGTQYGEYTYYDYDYWGQCTQVTVSS | low polyreactivity
19 | QVQLVESGGGLVQAGGSLRLSCAASGSTIPYNTMGWYRQAPGKERELVAAISSSCRSTYYADSVKGRFTISRDNAKKTVYLQMNSLKPEDTAVYYCNAQIVASYQARRYYYWGQGTQVTVSS | low polyreactivity
20 | QVQLVESGGGLVQEGGSIRLSCAASGRIFYFNTMGWSRQAPGKERELVAAISKNGGSTYYADSVKGRFTISRDNEKNSVYLQMNSLKPEDTAFYLCAKTRRLSPYDYWGLGTQVTVSS | high polyreactivity
21 | HDQLVESGGGLVQAGGSLRLSCAASGFTFLDYAMGWSRKAPGKERELVASISSSGGSTRYADSVKGRFTISRDNAKNTVYLQMKSLKPQDTAVYYCNAQIAEVPNDYWGQGTPVTVSS | low polyreactivity

Row | Sequence | polyreactivity (PSR sort gate)
22 | QVQLVESGGGLVQAGGSLRLSCAASGRIFYRYAMGWYRQAPGKERELVASITSGGSTTYYADSVKGRFTISRDNAKNTVYLQMNSLKPEDTAVYYCAARPRYRKEYDYWGQGTQVTVSS | high polyreactivity
23 | QVQLVESGGGLVQAGGSLRLSCAASGRIFGGYTMGWYRQAPGKERELVAAITSGGSTNYADSVKGRFTISRDNAKNTVYLQMNSLKPEDTAVYYCAATYDGTYDYWGQGTQVTVSS | high polyreactivity
24 | QVQHVQSGGGLVQAGGRHRLSCAASGSTIRYYAMGWYRQAPGTERELVAAISGSGGRTYYADSVKGRFTISRDNAKNTGYLQMNSLKPEDTAVYYCYTRGRRTDNDYWGQGTQLTVSS | high polyreactivity
25 | QFQLVESGGGLVQAGGSLRLSSAASGFIIRYYAMGWYRQAPGKERELVAAISASGGSTYYADSVKGRFTISRDNAKNTVYLQMNSLKPEDTAVYYCAARYWLREDYWGQGTQVTVSS | high polyreactivity
26 | QVQLVESGGGLVQAGGSLRLSCAASGRIFSQYAMGWYRQAPGKERELVAAISYDDGITYYADSVKGRFTISRDNAKNTVYLQMNSLKPEDTAVYYCNADGSRRYNYWGQGTQVTVSS | low polyreactivity
27 | QVQLVESGGGLVQVGGSLRLSCAASGGIFSGNAMGWYRQAPGKERELVAGITNCGRTSYADSVKGRFTISRDNAKNTDYFQMNSLKPEDTAVYYCNAKVGAYLNYGYWGQGTQVTVSS | low polyreactivity
28 | QVQLVESGGGLVQAGGSLRLSCAASGSTFSRYTMGRYRQAPGKERELVAAIRRSGASTYYADSVKGRFTISRDNAKNTVYLQMNSLKPEDTAVYYFAVGRYRYGYWGQGTQVTVSS | high polyreactivity
29 | QVQLVESGGGLVQAGGSLRLSCAASGSTFNKYTMGWYRQAPGKERELVAAITSGDSTYYADSVKGRFTISRDNAKNTVYLQMNSLKPEDTAVYYCAKSLRAYRHVIYGKPFYSWGQGTQVTVSS | low polyreactivity
30 | QVQHVESGGGLVQAGGSLRLSCAASGRTFSWYVMGWYRQSPGKERELVAAISWNGGRTYYADSVKGRFTISRDNAKNTVYLQMNSLKPEDTAVYYCAAKSYHGYPFDYWGQGTQVTVSS | high polyreactivity
31 | QVHLVESGGGLVLAGGSLRLSCAASGIIFTYAMGWYRHAPGNERELVAAIDWRGGRTYYADSLKGRFTISRDNAKNTFYLQMNSLKPEDTAVYYCAPRLPGGTYYWGQGTQVTESS | high polyreactivity
32 | QVQLVESGGGLVQAGGSLRLSCAASGSTFKVNVMGCYRKAPVKERELVAAINQSVRGTYYADSVKGRFTISRDNAKNTVYLQMNSLKPEDTAVYYCAAKIIVLRYVLSQEQRRYNYWGQGTQVTVSS | low polyreactivity
33 | QVQLVESGGGLVQAGRSLRLSCAASGLTFSAYAMGWYRQAPGKEREFVAAITDSDGSTYYADSVKGRFTITRDNAKNTVYLQMNSLKPEDTAVYYCAASGSWYYGNWSGGYDYWGQGTQVTVSS | low polyreactivity
34 | QVQLVESGGGLVQAGGSLRLSCAASGITFSGYDMGWYRQAPWKERELVASSTYYADSVKGRFTISRDNAKNTVYLQMNSLKPEDTAVYYCAADSPGDFGGYGFDYWGQGTQVTVSS | high polyreactivity
35 | QVQLVESGGGLVQAGGSLRLSCAASGLTFSGNVMGWYRQAPGKERELVAAIDRSGGSTYYADSVKGRFTISRDNAKNTVYLQMNSLKPEDTAVYYCAVSSYPNHSRSWDDYWGQGTQVTVSS | low polyreactivity
36 | QVQLVETGGGLVQAGGSLRLSCAASGFILDYNAKGWYRQAPGKERELVAAITSGGSTNYSDSVKGRFTISRDNAKNTVYLQMNSLKPEDTAVYYCNVRSVSPVHDDGSWGQGTQVTVSS | low polyreactivity
37 | QVQLVESGGGLVQAGGSLRLSCAASGSIFRYYAMGWYRQAPGKERELVAAISWSVGGTYYADSVKGRFTISRDNAKNTVYLQMNSLKPEDTAVYYCAADVLYTQYGYWGQGTQVTVSS | low polyreactivity
38 | QVQLVESGGGLVQAGGSLRLSCAASGRTFAYNAMGWYRQAPGKERELVAAISSSGGSTYYADSVKGRFTISRDNAKNTVYLQMNSLKPEDTAGYYCATQGFSWAHGSDYWGQGTQVTVSS | low polyreactivity
39 | QVQLVESGGGLVQAGGSLRLSCSASGLIFGNYGMGWYRQAPGKERELVAVITDDDSTTYADSVKGRFTISRDNAKNTFYLQMNSLKPEDTAVYYCNADNLLGRFDSWGQGTLVTVSS | low polyreactivity
40 | QVQLVESGGGLVQAGGSLRLSCAASGFTFYNNAMGGYRQAPGKERELVAVITSNGGRTYYADSVKGRFTISRDNAKNTVYLQMNSLKPEDTAVYYCAKRGYGYGDGAYYYWGQGTQVTVSS | low polyreactivity
41 | QVQLVESGGGLVQAGGSLRLSCADSGSIFSYYAMGWYRQEPGKARELVASISRTGVSTHYADSVKGRFTISRDNAKNTVYLQMNSLKPEDNAVYYCNAKYLTWSYRYYYWGQGTQVTVSS | high polyreactivity
